The values below come from PMC6192996, “Loss of a conserved salt bridge in bacterial glycosyl hydrolase BgIM-G1 improves substrate binding in temperate environments” (Communications Biology, 2018).

One data set concerns the target T1, BglM-G1 (marine metagenome, UniProt Z9E642Q5N2).
T1 construct: codon-optimised synthetic gene in pOE, E. coli BL21(DE3); N-terminal MHHHHHHENLYFQGH tag TEV-cleaved, scar GH; theoretical mass 49,874 Da; monomer in solution
T1 sequence (Z9E642Q5N2 16-455 H90R): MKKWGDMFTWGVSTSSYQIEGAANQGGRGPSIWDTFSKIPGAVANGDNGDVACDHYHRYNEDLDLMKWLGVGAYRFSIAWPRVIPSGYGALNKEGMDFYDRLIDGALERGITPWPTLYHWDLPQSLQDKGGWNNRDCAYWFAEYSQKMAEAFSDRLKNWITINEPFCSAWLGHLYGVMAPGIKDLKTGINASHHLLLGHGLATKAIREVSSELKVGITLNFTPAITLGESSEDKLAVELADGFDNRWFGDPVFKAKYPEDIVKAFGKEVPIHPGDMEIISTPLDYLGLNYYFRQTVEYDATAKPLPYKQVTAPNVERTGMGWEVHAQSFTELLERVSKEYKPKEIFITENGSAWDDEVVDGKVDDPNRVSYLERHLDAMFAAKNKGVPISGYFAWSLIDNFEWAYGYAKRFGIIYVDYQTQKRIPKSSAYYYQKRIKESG
In words: X-ray crystal structure, […] Å, soaked crystals. The class given is binding. Conditions: 6 mM ligand soak 24 h, pH 7.5, 18 °C; active site.

Data set [1] relates to C[C@H]1O[C@@H](Oc2ccc([N+](=O)[O-])cc2)[C@H](O)[C@@H](O)[C@H]1O. Put plainly: purified protein. Conditions: 100 mM sodium citrate pH 6.0, 45 °C.
For data set [2], the system named is O=[N+]([O-])c1ccc(O[C@@H]2O[C@H](CO)[C@@H](O)[C@H](O)[C@H]2O)cc1. In words: purified protein. Conditions: 100 mM sodium citrate pH 6.0, 45 °C.

`OC[C@H]1NC[C@H](O)[C@@H](O)[C@@H]1O` [1-deoxynojirimycin]: the “X-ray crystal structure, 1.55 Å, soaked crystals” value on BglM-G1 is “we co-crystallized the H75R variant with the glucosidase inhibitor 1-deoxynojirimycin”.

Turning to BglM-G1 (marine metagenome), in data set [1], the Km (commonly the substrate concentration at which the rate is half of its maximum) came to 88 ± 38 µM, the kcat (commonly the maximal rate divided by the concentration of active sites) came to 41.4 ± 3 s⁻¹ and the kcat/Km (commonly the second-order rate constant that governs catalysis at low substrate concentration) turned out to be 519000 ± 146000 M⁻¹ s⁻¹. Also, in data set [2], the Km is on record as 135 ± 16 µM, the catalytic constant (kcat) turned out to be 55.6 ± 1.5 s⁻¹ and the kcat/Km stood at 417000 ± 44000 M⁻¹ s⁻¹.
